# Tested on: K4 kissing-loop RNA reporter
# Experiment: apparent KD of K4 kissing-loop reporter; higher = weaker reporter binding
# Conditions: Eterna round: R107
# Protocol: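 RNA-MaP round R107: designed RNA switches with theophylline, tryptophan, arginine or FMN aptamers are transcribed on-chip within common flanks. They are titrated with a labelled K4 kissing-loop RNA reporter in RNA-MaP buffer (100 mM Tris pH 7.5, 80 mM KCl, 4 mM MgCl2), without ligand or with the indicated ligand. Median apparent KD per design.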
# [1] = input ligand: theophylline 20 uM
# [2] = input ligand: tryptophan 2.4 mM
# 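Further: bound reporter read as fluorescence of individual clusters on recovered sequencing chips by microscopy, with normalized cluster intensities fitted with a binding model.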
Sequence,apparent KD of K4 kissing-loop reporter (input ligand: FMN 200 uM),apparent KD of K4 kissing-loop reporter (input ligand: arginine 13.2 mM),apparent KD of K4 kissing-loop reporter (input ligand: none),apparent KD of K4 kissing-loop reporter [1],apparent KD of K4 kissing-loop reporter [2]
UAGUCCUAGUGAUCGUUAUCACGUGGUGGGCGAGGACCGGUACGGCCGCCACUCGACUAUGCAGUGAUGUUGCAAUCCGGACAAU [Exclusion - Tryptophan A (Freestyle 15)],294 nM,436 nM,477 nM,325 nM,145 nM
CGGCUCUAUCCUAGUAUUAAGAGGGAGUUGCGAGGACCGGUACGGCCGCCACUCGAAGUAGUUUGGCCAGUGAUGUUGGUCUUAC [Qubeatonza],223 nM,213 nM,129 nM,152 nM,421 nM
AGAUUCGACACGGCCGCCACUUCCGGUGGCUGGUGUCAUGGUGCGCGUGAGUGAUGUUUAUGUGGGAGGACCGGGUGUUGAGUCU [whbob_Ex_Tryp_B_w42],616 nM,393 nM,654 nM,559 nM,704 nM
UCGCAAGAAUCACUGUGGAGGACCUUGGCCAAGGAUAUCAAAGGAUUGAGAAGGUGGCGCCAAGUGAUGUUUGGAUGCCGGGCAG [theeternabot_exclusion_KL_FMN_A_36],149 nM,286 nM,293 nM,183 nM,256 nM
CCCGCGGCGGGAAACCGUCGCGGGAAGGAAGGAGCGGCGAAGAAGCCAGGUAGGUCGCCUAUUGACAGUGAUGUUGUUAUAUAGA [#11],226 nM,263 nM,160 nM,292 nM,179 nM
GGAUCCACCAGUGAUGUUGGAAAAUACUCCAAGGAUAUGACGAAAGUCAGAAGGUGGUAGACUGGACAAAGUCCAGUCGGAUCCA [FmnA 27 #SwitchBubble #K4Early],531 nM,205 nM,527 nM,537 nM,504 nM
ACAAUGAUCAAAGGAUAUCGUAAGUUAUACAUCACGCGAUGAUUCAGAGGCGAGUGAUGUUUGUCUCGAGAAGGUUGGUACCGUC [theeternabot_exclusion_KL_FMN_B_37],366 nM,539 nM,521 nM,599 nM,568 nM
GAGGUACAGGCGGCCGCCACUAGUGAUGUUAGUGAUGUUUGAUACUGUAUAUAUCGGCGUGUAGAUAGGACCGGGCCUGAUGGAG [znmkmullin],122 nM,78.7 nM,100 nM,109 nM,91.8 nM
UUAGGCUCUCUUCUCAUUCGCUUAACCGAUACCAGAGUAAGCCCUCUCCCUUGGCAGCGGAGUGAUGUUCCGAGUGUUGAUAUUG [theeternabot_exclusion_KL_Theo_A_44],93.1 nM,113 nM,113 nM,130 nM,107 nM
AACUGUCAAGGACAACAUUACUGAGGUGAUACCAGGUUUGAGAGGAUCCCUUGGCAGCACCAACUUGCAGUGAUGUUGCAAGUAA [BrourdMod 15 - Jieux - Exclusion - Theophylline A],243 nM,211 nM,240 nM,254 nM,243 nM
CAGCGGAGUGAUGUUCUGCUUACUGCGGAUACCAGCUUCGCCAGAGGCCCUUGGCAGCCGGGCGGCUCAGUGAUGUUGGGUUGCU [Same State Theophylline A GF 15],536 nM,559 nM,876 nM,920 nM,664 nM
GCAAGGCUACAAGGAUAUGCGCGAACCUACCGCCAAGCGGCUACCGGUGAGUCAGUGAUGUUGGCUGCAGAAGGUGUGAUUGAGC [theeternabot_sameState_KL_FMN_B_45],383 nM,301 nM,365 nM,380 nM,334 nM
AAUUUAUAUUUAUUCUUUAAAUGUUCAGAAGGAGCGUGAAUUAUCACAGGUAGGUCGCUGAGCUAGUGAUGUUAGCUAUAUACUA [JR_ExcArginiA_Sub007],50.3 nM,95.3 nM,67.7 nM,97 nM,47.5 nM
CGCAGGAUGGAAGGAUAUGGGAGUUGACGUCGCCGAGCUAACCUUCUGCACGGAGUGAUGUUUAGACCAGAAGGUCCUCGGAGCA [theeternabot_exclusion_KL_FMN_B_17],1210 nM,997 nM,1610 nM,1150 nM,1180 nM
AAGUCAUAUAGAAGGAGCGUGUUUUUUAAUUUGUUUUCAUGAUCGAGUGAUGUUCGAUAUACACAGGUAGGUCGCUGUAUAAUAA [hbob_SS_Arginine_B_2t142],119 nM,141 nM,131 nM,127 nM,106 nM
UGUCAUUGGUCGGCCGCCACUUCAUAAAAGAGUGAUGUUCUAAAGACGGAUCGAAAGAUCUGUCGAAGGACCGGGACCGAUGACU [TrypBS 19 #SwitchBubble #StaticStem],508 nM,168 nM,209 nM,419 nM,753 nM
ACUGAGCAUGCGGCCGCCACUUCAGAACGUCGCCCAAAGGGCGACGCCUCCACAGUGAUGUUGUGGAGGACCGGGCAUGUUCAGA [Omei KL Tryp B Exc A v2],152 nM,113 nM,136 nM,111 nM,144 nM
GCUAUGGUAGGAAGGAGCGCUUAUUUAUUUUUAAGAGUGAUGUUCGUUAGUAGAUAUUUAAAGCAGGUAGGUCGCCUACUAUAGC [Arginine B K4 14],85.8 nM,124 nM,84 nM,120 nM,52 nM
CAGUUCCGUAGUGAUGUUACGAUCUCUGAUACCAGACAACUCUAAGUCCCUUGGCAGCAGUCAUUUUGCUUAAUAUUUACUCAAA [#08 K4 Theophylline A Exclusion],126 nM,139 nM,136 nM,170 nM,116 nM
AUUAUAAAGGCGGCCGCCACUAGUGAUGUUAGUGACUAUAGUAUUAUCUAUAGAAUAAAAUAAAAUAGGACCGGGCCAAAAUAUU [AstrosExTryB#2],535 nM,411 nM,525 nM,493 nM,464 nM
GCAUCCUAUGCAGGAUAUUAGCAUUUGAGUGAUGUUCAGACUAGCGAAAGCUAGUCAAUUGCUGGUUAAGAAGGGCAUAGGAUGC,891 nM,750 nM,971 nM,902 nM,689 nM

Sequence,apparent KD of K4 kissing-loop reporter (input ligand: FMN 200 uM),apparent KD of K4 kissing-loop reporter (input ligand: arginine 13.2 mM),apparent KD of K4 kissing-loop reporter (input ligand: none),apparent KD of K4 kissing-loop reporter [1],apparent KD of K4 kissing-loop reporter [2]
AAGCAGUCACUCGACGCCAUCGAAGAUGGGCGAGGACCGGUACGGCCGCCACUCGGAGUGAUGUUCCGAAGACUGCAAAAUAAAA [MatMod 6 - Jieux - Exclusion - Tryptophan A],356 nM,317 nM,384 nM,329 nM,480 nM
AUAUUACUAUACGAUACCAGCCCUAACACUAGUGACGCGGUAAUAGUGAUGUUGUAACCCGGCCCUUGGCAGCGUAAUCAUGGAA [theeternabot_sameState_KL_Theo_B_7],529 nM,395 nM,519 nM,524 nM,475 nM
GGCAUGGUGACGCGGCUGCCAUACGCUUGGGAGGAUAUGUUUCGUGACAGAAGGCCCAGUGAUGUUGGGUCUGUUCAAAAGGACU [Arisus],659 nM,160 nM,170 nM,169 nM,150 nM
GCAGUCAAUCAACCACGAAAGUGGAUGGAUACCAGCCCGAAACCGGGCCCUUGGCAGCCAGUGAUGUUGGAAGACUGCUUUAAAA [#SwitchBubble 15 #K4Late],974 nM,256 nM,607 nM,219 nM,337 nM
AAGCCAUACUCGGCCGCCACUUACUUCGUUGCAGUGAUGUUGCACACGAAUCCGUCAUAGCAAAUAAGGACCGGGAGAUAUACCG [theeternabot_exclusion_KL_Trp_B_19],89.3 nM,89.3 nM,95.1 nM,87.5 nM,86.3 nM
GCAGUGAUGUUGCAAAAUGUCUGUGGUAGUCGAGGACCGGUACGGCCGCCACUCGGUGAGAACCUGCUAAUACAUCGAUAAGUGA [IX],706 nM,580 nM,627 nM,810 nM,666 nM
UCACCGCCUAGUGAUGUUACGCGACUCAGAAAGGAUAUAAUCAAUCUUAGAAGGUUCACACCGUAUGGAUAUUAUCUAUCUCGUU [theeternabot_exclusion_KL_FMN_A_39],456 nM,284 nM,427 nM,437 nM,398 nM
GGGAACUCUUACGAUACCAGCCGGAGUGAUGUUCCGCGCUUGGACGUAGUAACCCGCACCGGCCCUUGGCAGCGUGGAUCUUAUA [Esbedi],89.9 nM,73.5 nM,73.9 nM,82.7 nM,83.1 nM
AGGAUCCGUCGACAAAAGUCGACAUAAGCCAAGGAUAUGACGAAAGUCAGAAGGUGGUCAUAAGACCAGUGAUGUUGGUGGAUCC [FmnA 13 #SwitchBubble #K4Late],909 nM,279 nM,526 nM,309 nM,457 nM
GGUGCUGUCUGUGCCGCCCUCCUCGUCCCUCGAGGACCGGUACGGCCGCCACUCGAGUGAUGUUCGGGUAGCCAUCCCUGCUAGC [Bdazzled - #19 Exc. Tryptophan A],647 nM,666 nM,680 nM,590 nM,937 nM
UAGUGUCGCGCAGGAUAUACUGAUUGGAGUGAUGUUCCAAACAUGCACGUGUGACUUUUACAAGAAGUAGAAGGGCGUGAGACAU [Exclusion FMN B GF 22],303 nM,200 nM,184 nM,198 nM,179 nM
AAACGUUGGUCGGAUACCAGCUUGAUCGGAAACGAUCUGCUGGAGUGAUGUUCCAAGUAAAGCCCUUGGCAGCCGACCGACGAAA [MAT - Same State Theophlline B - Mod of Eli - D18],148 nM,65.1 nM,99.4 nM,95.4 nM,71.6 nM
AGACUACCACACUGUCAAUAGACAGUGAACUAGGAUAUGCUGAUAAGCAGAAGGAGUGAUGUUCCUUGGUAGUCAAUAAAAUAAU [FmnAX 13 U67],308 nM,270 nM,298 nM,330 nM,289 nM
GGCAUGGUGACGCGGCGGCCAUGCACUUGGGAGGAUAUGUUUCGUGACAGAAGGCCCAGUGAUGUUGGGUCUGUUCAAAAGGACU [Riteveat],491 nM,170 nM,192 nM,174 nM,141 nM
ACGAUUUACAGAAGGAGCGUGUAUUUAUCUACAAUUUUCUUAGCGAGUGAUGUUCGUUAUACACAGGUAGGUCGCUGUAUAUCGA [JR_ExcArginiB_Sub013],185 nM,214 nM,201 nM,199 nM,174 nM
GAGGUACAGGCGGCCGCCACUAGUGAUGUUAGUGAUGUUAGAUAAAGUAUAUAUCGGCGUGUAGAUAGGACCGGGCCUGAUGGAG [ssrykmullin],49 nM,33.6 nM,60 nM,42 nM,53.9 nM
ACGUCACGUAAACUCGUGGUUUCGAUCGAUACCAGUAGCGAGAGUUACCCUUGGCAGCGACAUGAGUGAUGUUCAUGUACGAAGA [KL-XTheoA1],101 nM,89.1 nM,97 nM,102 nM,91.7 nM
UUAGUCUAGAGAGGAUAUCAGUGAUGUUGAUAUCAAGAUCUAAGAUAGAAUUCUAUCUUAGAUCAAUGAGAAGGCUCUAGACAUU [AK1.1 Exc FMN B],993 nM,144 nM,151 nM,128 nM,147 nM
GGCCGCAAGGCGAGCGCUCCCACUCCGGAAGGAGCGCCCGUAAGGGCAGGUAGGUCGCCGGAGUGAUGUUCCGGUGGAGGGCUCG [#2 Exclusion - Arginine A Attempt #17 (Inspired by Omei)],565 nM,239 nM,547 nM,443 nM,460 nM
AAGCAGUCAGGAUCGAAGAUCCUGCAAUACCGAGGACCGGUACGGCCGCCACUCGGAGUGAUGUUCCGAAGACUGCAAAAUAAAA [#SwitchBubble 7],436 nM,255 nM,243 nM,57.9 nM,152 nM
GGAUCCACCAGUGAUGUUGGAGAAAACUCUAAGGAUAUGACGAAAGUCAGAAGGUGGUAGACUGGACAAAGUCCGGUAGGAUCCA [FmnA10 U30+A78],682 nM,201 nM,617 nM,216 nM,250 nM
